# Data published in the supplement of paper PMC12667976.
# ± gives the standard error.
# B1: library; numbered along this chain (parent)
# chain: MATDAALRRLLRLHRTEIAVAVDSAFPLLHALADHDVVPEDKFQETLHLKEKEGCPQAFHALLSWLLTQDSTAILDFWRVLFKDYNLERYGRLQPILDSFPKDVDLSQPRKGRKPPAVPKALVPPPRLPTKRKASEEARAAAPAALTPRGTASPGSQLKAKPPKKPESSAEQQRLPLGNGIQTMSASVQRAVAMSSGDVPGARGAVEGILIQQVFESGGSKKCIQVGGEFYTPSKFEDSGSGKNKARSSSGPKPLVRAKGAQGAAPGGGEARLGQQGSVPAPLALPSDPQLHQKNEDECAVCRDGGELICCDGCPRAFHLACLSPPLREIPSGTWRCSSCLQATVQEVQPRAEEPRPQEPPVETPLPPGLRSAGEEVRGPPGEPLAGMDTTLVYKHLPAPPSAAPLPGLDSSALHPLLCVGPEGQQNLAPGARCGVCGDGTDVLRCTHCAAAFHWRCHFPAGTSRPGTGLRCRSCSGDVTPAPVEGVLAPSPARLAPGPAKDDTASHEPALHRDDLESLLSEHTFDGILQWAIQSMARPAAPFPS
# Variants of: B1
# Assay: AIRE transcriptional activation functional score (insulin promoter-GFP; nonsense median 0, synonymous median 1) (normalised score); higher = higher AIRE activity (more reporter activation)
# Settings: with insulin promoter-GFP reporter in HEK293
# Procedure: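 Deep mutational scan of full-length human AIRE (codon-optimized cDNA, DT-POPCode NNN libraries over three regions) integrated at a Bxb1 landing pad in HEK293 cells carrying an insulin core promoter-GFP reporter at a Flp-In site. Cells were sorted for the top 10% GFP about 14 days after transfection. Variant frequency log-ratios (select vs non-select, TileSeq) were rescaled so that the nonsense median is 0 and the synonymous median is 1, then averaged over biological replicates.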
row,Variant,AIRE transcriptional activation functional score
1,A152F,1.55 ± 0.15
2,A152S,0.715 ± 0.46
3,A152G,0.815 ± 0.37
4,A152M,1.86 ± 0.072
5,A152P,0.594 ± 1
6,A152E,-0.141 ± 0.22
7,A152L,1.19 ± 0.46
8,A152N,0.485 ± 0.32
9,A152Y,1.21 ± 0.48
10,A152W,1.68 ± 0.4
11,A152C,0.402 ± 0.25
12,A152Q,0.894 ± 0.41
13,A152V,1.17 ± 0.27
14,A152T,1.32 ± 0.64
15,A152D,0.696 ± 0.32
16,A152K,0.993 ± 0.36
17,A152R,0.913 ± 0.49
18,A152H,0.789 ± 0.29
19,A152I,0.777 ± 0.33
20,K159F,1.44 ± 0.11
21,K159D,0.68 ± 0.32
22,K159G,0.883 ± 0.64
23,K159A,0.394 ± 0.53
24,K159E,0.955 ± 0.22

row,Variant,AIRE transcriptional activation functional score
1,K159C,1.14 ± 0.28
2,K159H,1.18 ± 0.71
3,P148D,0.772 ± 0.85
4,P148W,0.0844 ± 0.061
5,P148H,0.972 ± 0.24
6,P148Y,1.97 ± 0.079
7,P148I,1.49 ± 0.64
8,P148E,1.67 ± 0.49
9,P148N,0.598 ± 0.25
10,P148T,1.29 ± 0.8
11,P148M,0.633 ± 0.3
12,P148K,-0.163 ± 0.16
13,P148R,0.931 ± 0.74
14,P148A,0.746 ± 0.41
15,P148G,0.361 ± 0.76
16,P148S,1.19 ± 0.36
17,P148C,1.31 ± 0.56
18,P148L,1.45 ± 0.61
19,P148F,1.53 ± 0.23
20,P148V,1.45 ± 0.56
21,P148Q,1.14 ± 0.68
22,R149G,0.663 ± 0.62
23,R149T,0.559 ± 0.36
24,R149F,0.857 ± 0.42

row,Variant,AIRE transcriptional activation functional score
1,R149E,1.02 ± 0.19
2,R149C,0.794 ± 0.24
3,R149N,0.726 ± 0.25
4,R149Y,0.303 ± 0.2
5,R149W,1.11 ± 0.26
6,R149A,1.19 ± 0.18
7,R149L,1.22 ± 0.58
8,R149D,1.12 ± 0.18
9,R149P,0.874 ± 0.47
10,R149Q,1.71 ± 0.2
11,R149S,1.26 ± 0.3
12,R149M,0.41 ± 0.38
13,R149K,0.675 ± 0.64
14,R149H,1.12 ± 0.097
15,R149V,0.621 ± 0.44
16,R149I,0.113 ± 0.67
17,L158W,1.22 ± 0.042
18,L158T,0.209 ± 0.54
19,L158K,0.11 ± 0.86
20,L158I,0.959 ± 0.38
21,L158E,0.986 ± 0.54
22,L158C,0.528 ± 0.29
23,L158P,0.723 ± 0.55
24,L158F,1.27 ± 0.11

row,Variant,AIRE transcriptional activation functional score
1,L158N,1.19 ± 0.29
2,L158D,0.772 ± 0.62
3,L158M,0.957 ± 0.086
4,L158S,0.724 ± 0.48
5,L158R,0.202 ± 0.6
6,L158Q,0.833 ± 0.56
7,L158G,1.33 ± 0.7
8,L158A,0.834 ± 0.42
9,L158Y,1.07 ± 0.39
10,L158V,0.815 ± 0.39
11,L158H,0.949 ± 0.3
12,A144G,1.31 ± 0.24
13,A144Q,0.126 ± 0.22
14,A144E,0.655 ± 0.26
15,A144M,0.931 ± 0.064
16,A144F,1.26 ± 0.26
17,A144N,0.39 ± 0.33
18,A144T,1.02 ± 0.52
19,A144R,0.836 ± 0.55
20,A144D,0.251 ± 0.65
21,A144P,1.65 ± 0.43
22,A144K,0.364 ± 0.24
23,A144H,0.0775 ± 0.4
24,A144I,0.989 ± 0.23

row,Variant,AIRE transcriptional activation functional score
1,A144L,1.17 ± 0.38
2,A144V,1.1 ± 0.35
3,A144C,1.04 ± 0.26
4,A144W,1.99 ± 0.039
5,A144S,0.773 ± 0.41
6,A144Y,1.48 ± 0.23
7,Q157H,1.34 ± 0.23
8,Q157R,0.62 ± 0.58
9,Q157S,1.05 ± 0.49
10,Q157I,0.859 ± 0.43
11,Q157V,0.829 ± 0.34
12,Q157P,1.1 ± 0.25
13,Q157G,1.08 ± 0.46
14,Q157D,0.498 ± 0.44
15,Q157K,0.787 ± 0.22
16,Q157M,0.398 ± 0.14
17,Q157L,1.26 ± 0.39
18,Q157W,0.173 ± 0.069
19,Q157C,1.27 ± 0.41
20,Q157Y,1.31 ± 0.54
21,Q157T,0.825 ± 0.5
22,Q157E,1.26 ± 0.53
23,Q157A,1.13 ± 0.74
24,Q157N,0.858 ± 0.49

row,Variant,AIRE transcriptional activation functional score
1,Q157F,1.5 ± 0.2
2,T147I,1.16 ± 0.47
3,T147W,1.75 ± 0.18
4,T147C,0.358 ± 0.19
5,T147S,0.771 ± 0.6
6,T147V,0.966 ± 0.9
7,T147F,1.49 ± 0.13
8,T147N,1.26 ± 0.56
9,T147P,0.125 ± 0.5
10,T147H,1.22 ± 1.1
11,T147E,1.45 ± 0.37
12,T147R,1.03 ± 0.44
13,T147Q,0.724 ± 0.48
14,T147M,1.19 ± 0.19
15,T147L,1.05 ± 0.42
16,T147G,0.811 ± 0.49
17,T147K,0.787 ± 0.57
18,T147Y,0.76 ± 0.21
19,T147A,0.279 ± 0.55
20,T147D,0.817 ± 0.27
21,S156K,0.349 ± 0.15
22,S156R,0.968 ± 0.47
23,S156P,0.405 ± 0.26
24,S156N,1.39 ± 0.5

row,Variant,AIRE transcriptional activation functional score
1,S156T,1.75 ± 0.85
2,S156G,0.917 ± 0.37
3,S156Q,0.543 ± 0.33
4,S156D,0.928 ± 0.48
5,S156F,1.53 ± 0.14
6,S156V,1.13 ± 0.6
7,S156E,0.377 ± 0.46
8,S156Y,0.901 ± 0.32
9,S156C,1.38 ± 0.2
10,S156M,0.855 ± 0.078
11,S156A,0.976 ± 0.7
12,S156W,1.64 ± 0.071
13,S156I,1.37 ± 0.37
14,S156L,1.55 ± 0.51
15,S156H,0.981 ± 0.23
16,G155N,0.154 ± 0.25
17,G155Q,-0.156 ± 0.43
18,G155Y,1.19 ± 0.37
19,G155C,0.555 ± 0.12
20,G155S,0.589 ± 0.56
21,G155I,0.209 ± 0.65
22,G155A,1.44 ± 0.52
23,G155W,1.83 ± 0.1
